From the supplement of paper PMC7125110
± gives the standard error. Variants at the floor of the assay were thinned out.

B1: glmS ribozyme (parent)
chain: AUAAAAGCGCCAGAACUACAGAAAUGUAGUUGACGAGGAGGAGGUUUAUCGAAUUUUCGGCGGAUGCCUCCAAA

Columns and labels:
Conditions in all cases: with glucosamine-6-phosphate
[1] = variants of: B1; assay: self-cleavage kobs at 40 uM GlcN6P; higher = faster cleavage; RNA array
How it was run: (§1)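 Tiles of sequenced MiSeq chips were imaged over ~14 h at 37 °C. On them, barcoded ribozyme variants had been transcribed in situ by E. coli RNA polymerase and were tracked via a hybridised Cy3 probe while glucosamine-6-phosphate (40 μM to 10 mM) in HEPES/KCl/Mg(OAc)2 buffer flowed in. Per-tile medians, normalised to baseline and to non-cleaving reference variants, were fit to one- or two-exponential decays for kobs, and weighted Michaelis–Menten fits gave kcat and KM.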

[2] = variants of: B1; assay: self-cleavage kobs at 10000 uM GlcN6P; higher = faster cleavage; RNA array
How it was run: as §1

[3] = variants of: B1; assay: self-cleavage kobs at 640 uM GlcN6P; higher = faster cleavage; RNA array
How it was run: as §1

[4] = variants of: B1; assay: self-cleavage kobs at 2500 uM GlcN6P; higher = faster cleavage; RNA array
How it was run: as §1

[5] = variants of: B1; assay: self-cleavage kobs at 160 uM GlcN6P; higher = faster cleavage; RNA array
How it was run: as §1

| Variant | self-cleavage kobs at 40 uM GlcN6P [1] [s⁻¹] | self-cleavage kobs at 10000 uM GlcN6P [2] [s⁻¹] | self-cleavage kobs at 640 uM GlcN6P [3] [s⁻¹] | self-cleavage kobs at 2500 uM GlcN6P [4] [s⁻¹] | self-cleavage kobs at 160 uM GlcN6P [5] [s⁻¹] |
| --- | --- | --- | --- | --- | --- |
| G35U U45A U57C C67A C68A | < 1e-05 | < 1e-05 |  |  |  |
| C11U U47A A52C | < 1e-05 |  |  |  |  |
| G13A G44C C61A U69G | < 1e-05 |  |  |  |  |
| G29C G41U U46C G62U | < 1e-05 | < 1e-05 |  |  |  |
| G13U G60U C68U | < 1e-05 |  |  |  |  |
| U46G G51C C67G | < 1e-05 |  |  |  |  |
| C50G U56G C61A | 8.29e-05 ± 2e-05 | 6.89e-05 ± 1.6e-05 | 0.000426 ± 0.00014 | 0.00021 ± 4.8e-05 |  |
| A53C G62U | < 1e-05 | < 1e-05 |  | < 1e-05 | < 1e-05 |
| C8A A15G | < 1e-05 | < 1e-05 | < 1e-05 | < 1e-05 | < 1e-05 |
| C8A G38C | < 1e-05 | < 1e-05 | < 1e-05 |  | < 1e-05 |
| A15G A42G C68U | 0.000393 ± 0.00011 | 0.0101 ± 0.0045 |  |  |  |
| G7C G62U | < 1e-05 | < 1e-05 |  | < 1e-05 |  |
| U31G U47C | 2.84e-05 ± 1.3e-05 |  | 0.000197 ± 4.8e-05 | 0.000501 ± 0.00015 |  |
| G32U G41C | < 1e-05 |  |  |  | < 1e-05 |
| C16G A48C | < 1e-05 | 4.28e-05 ± 1.7e-05 | < 1e-05 |  | < 1e-05 |
| C8G A33U | < 1e-05 | < 1e-05 | < 1e-05 | < 1e-05 | < 1e-05 |
| G35A U54G C68G | 0.000144 ± 5.9e-05 |  |  |  |  |
| C50G G63A C70G | 0.000105 ± 2.6e-05 | 8.99e-05 ± 1.5e-05 | 0.000198 ± 4.3e-05 | 9.35e-05 ± 3e-05 |  |
| A42G U55A G63C | < 1e-05 |  |  | < 1e-05 |  |
| C10G A33C | < 1e-05 | < 1e-05 |  | < 1e-05 | < 1e-05 |
| G35C G51A C68U | < 1e-05 |  |  |  |  |
| C10G C61U | < 1e-05 | < 1e-05 | < 1e-05 |  | < 1e-05 |
| A12U C68U | 0.000326 ± 3.4e-05 | 0.00957 ± 0.0013 | 0.00195 ± 0.00021 | 0.0112 ± 0.002 | 0.000964 ± 9.8e-05 |
